Test results as given in the RNAGym collection of RNA variant scans (doi:10.1073/pnas.2313332121).
Variants at the floor of the assay were thinned out.

B1: TPR 5TU (parent)
chain: GGAUCUUCUCGAUCUAACAAAAAAGACAAAUCUGCCACAAAGCUUGAGAGCAUCUUCGGAUGCAGAGGCGGCAGCCUUCGGUGGCGCGAUAGCGCCAACGUUCUCAACUAUGACACGCAAAACGCGUGCUCCGUUGAAUGGAGUUUAUCAUG

Variants of: B1
Experiment: polymerase ribozyme fitness, log enrichment relative to wild type (log ratio); higher = more active; in vitro selection for triplet polymerase activity
Outline: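 The heterodimeric triplet polymerase ribozyme's subunits were each mutagenized into PCR-built libraries and transcribed. Every library was selected once, in triplicate, by annealing with a biotinylated primer, the partner subunit and triplets, incubating frozen at −7 °C, gel-excising extended constructs, capturing on streptavidin beads and running RT-PCR. Input and output libraries were Illumina-sequenced, with genotypes kept only at ≥10 input reads and ≥1 read per output. Fitness, from inverse-variance-weighted replicate averages, is the base-2 logarithm of genotype enrichment over wild-type enrichment.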

Variant | polymerase ribozyme fitness (log ratio)
GGAUCUUCUCGAUUUAACAAAAAACACAAAUCUGCCAGAAAGCUUGAGAGCAUCUUCGGAUGCAGAAGAGGCAGCCUUCGGUGGCGCGAUAGCGCUAACGUUCUCAACUAUGACACGCAAGACGCGUGCUCCGUUGAAUGGAGUUUCUCAUG [C14U G25C C38G G67A C69A C96U A121G A147C] | ≤ -4.2
GGAUCUUCUCGAUUUAACAAAAAAGACAAAUCUGCCACAAAGCUUGAGAGCAUCUUCGGAUGCAGAGGCGGCAGCCUUCGGUGGCGCGAUAGCGUCAACGGUCUUAACUAUGACACGCAAAACGUGUGCUCCGUUGAAUGGUGUUUAUCAUG [C14U C95U U101G C105U C125U A142U] | ≤ -4.2
GGAUCUUCUCGAUUUAACAAAAAAGACAAAUCUGCCACAAAGCUUGAGAGCAUCUUCGGAUGCGGAGGCGGCAGCCUUCGGUGGCGCGAUAGCGCCAACGUUCUCAACUAUGACACGCAAAACGCGUGCUCCGUUGAAUGGAGUUUAUCAUG [C14U A64G] | -4.17
GGAUCUUCUCGAUUUAACAAAAAAGACAAAUCUGCCACAAAGCUUGAGAGCAUCUUCGGUUGCAGAGGCGGCAGCCUUCGGUGGCGCGAUAGCGCGAACGUUCUCAACUAUGACACGCAAAACGCGUGCUCCGUUGAAUGGAGUUUAUCAUG [C14U A60U C96G] | ≤ -4.2
GGAUCUUCUCGAUUUAACAAAAAAGACAAAUCUGCCACCAAGCUUGAGAGCAUCUUCGGAUGCAGAGGCGCCAGCCUUCGGUGGUGCGAUAGCGCCGACGUUCUCAACUAUGACACGCAAAACGCGUGCUCCGUUGAAUGGAGUUUAUCAUG [C14U A39C G71C C85U A97G] | ≤ -4.2
GGAUCUUCUCGAUUUAACAAAAAAGACAAAUCUGCCACAAAGCUUACGAGCAUCUUAGGAUGCACAGGCGGCAGCCUUCGGUGGCUCGAUAGCGCUAACGUUCUCAACUAUGACACGCAAAACGCGUGCUCCGUUGAAUGGAGUUUAUCAUG [C14U G46A A47C C57A G65C G86U C96U] | ≤ -4.2
GGAUCUUCUCGAUUUAACAAAAAUGACAAAUCUGCCACAAAGCUUGAGAGCAUCAUCGGAUGCAGAGGCCGCAGCCUUCGGUGGCGCGAUAGCACCAACGUUCUCAACUAUGACAGGCAAAACGCGUGCUCCGUUGAAUGGAGUUUAUCAUG [C14U A24U U55A G70C G94A C116G] | ≤ -4.2
GGAUCUUCUCGAUUUAACAAAAAAGACAAAUCUGCCACAAAGCUUGAGAACAUCUUCCGAUGCAGAGGCGGCAGCCUUCGGUGGCGCGAUAGCGCCAACGUUCUCAACUAUGACACGCAACACGCGUGCUCCGUUGAAUGGAGUUUAUCAUG [C14U G50A G58C A121C] | -3.27
GGAUCUUCUCGAUUUAACAAAAAAGACAAAUCUGCCACAAAGCUUGAGACCAUCUUCGGAUGCAGAGGCGGCAGCCUUCGGUGGCGCGAUAGCGCCAUCGUUCUCAAAUAUGACACGCAAAACGCGUGCUCCGUUGAAUGGAGUUUAUCAUG [C14U G50C A98U C108A] | ≤ -4.2
GGAUCUUCUCGAUUUAACAAAAAAGACAAAUCUGCCACAAAGCUUGAGAGCAUCUUCGGAUGCAGCGGCGGCAGCCUGCGGUGGCGCGAUAGCGGCAACGUUCUCAAUUAUGACACGCAAAACGCGUGCUCCGUUGAAUGGAGUUUAUCAUG [C14U A66C U78G C95G C108U] | ≤ -4.2
GGAUCUUCUCGAUUUAACAAAAAAGACAAAUCUGCCACAAAGCUUGAGAGCAUCUUAGGAUGCAGAGGCGGCAGCCUUCGGUGGCGCGAUAGCGCCAACGUUCUCAACUAUGACACGCAAAACGCGUGCUCCGUUGAAUGGAGUUUAUCAUG [C14U C57A] | -0.738
GGAUCUUCUCGAUUUAACAAAAAAGACAAAUCUGCCACAAAGCUUGAGACCAUCUUCGGAUGCAGAGGCGGCAGCCUUCGGUGGCGCGUUAGGGCCAACGUUCUCAACUAUGACACGCAAAACGCGUGCUCCGUUGAAUGGAUUUUAUCAUG [C14U G50C A89U C93G G143U] | ≤ -4.2
GGAUCUUCUCGAUUUAACAAAAAAGACAAAUCUGCCACAAAGCUUGAGAGCAUUUUCGGAUGCAGAGGCGGCAGCCUUCGGUGGCGCGAUAGCGCCAACGUUCUCAACUAUGACACGCAAAACGCGUGCUCCGUUGAAUGGAGUUUAUCAUG [C14U C54U] | -1.87
GGAUCUUCUCGAUUUAACAAAAAAGACAAAUCUGCCACAAAGCUUGAGAGCAUCUUCGGAUGCAGAGGCGGCAGCCUUCGGUGGAGCGAUAGCGCCAACGUUCUCAACUAUGACACGCAAAACGCGUGCUCCGGUGAAUGGGGUUUAUCUUG [C14U C85A U134G A142G A150U] | ≤ -4.2
GGAUCUUCUCGAUUUAACAAAAAAGACAAAUCUGCCACAAAGCUUGAGAGCAUCUUCGGAUGCAGAGGCGGCAGCCUUCGGUGGCGCGAUGGCGCCAACGUUCUCAACUAUGACACGCAAAACGCGUGCUCCGUUGAAUGGAGUUUAUCAUG [C14U A91G] | -3.98
GGAUCUUCUCGAUUUAACAAAAAACCCAAAUCUGCCACAAAACUUGAGAGCAUCUUCGGUUGCAGAGGCGGCAGCCUUCGGUGACGCGAUAGCGCCAACGUUCUCAAUUAUGACACGCAAAACGCGUGCUCCGUUGAAUGGAGUUUAUCAUA [C14U G25C A26C G42A A60U G84A C108U G152A] | ≤ -4.2
GGAUCUUCUCGAUUUAACAAAAAAGACAAAUCUGCCACAAUGCUUGAGAGCAUCUUCGGCUGCAGUGGCGGCAGCCUUCAGUGGUGCGAUAGCGCCAACGUUUUCAACUAUGACACGCAAAACGCGUGCUCCGUUGAAUGGAGUUUAUCAUG [C14U A41U A60C A66U G80A C85U C103U] | ≤ -4.2
GGAUCUUCUCGAUUUAACAAAAUAGACAAAUCUGCCACAAAGCUUGAGAGCAUCUCCGGAUGCAGAGGCGGCAGCCUUCGGUGGCGUGAGAGCGCCAACGUUCUCAACUAUGACACGCAAAACGCGUGCUCCGUUGAAUGGAGUUUAUCAUG [C14U A23U U56C C87U U90G] | ≤ -4.2
GGAUCUUCUCGAUUUAACAAAAAAGACAAAUCUGCCACAAAACUUGAGAGCAUCUUCGGAUGCAGAGGCGGCAGCCUUCGGUGGCGUGAUAGCGCCAACGUUCUCAACUAUGACACGCAAAACGCGUGCUCCGUUAAAUGGAGUUUAUCAUG [C14U G42A C87U G136A] | ≤ -4.2
